{"source": "patent US20140287419A1", "about": "“Compositions Having Dicamba Decarboxylase Activity and Methods of Use” (priority 2013, published 2014)", "molecules": {"B1": {"name": "SEQ ID NO:1: 2,6-Dihydroxybenzoate Decarboxylase, Rhizobium sp. MTP-10005 (protein, listed as Rhizobium sp.)", "chain": "MAQGKVALEEHFAIPETLQDSAGFVPGDYWKELQHRLLDIQDTRLKLMDAHGIETMILSLNAPAVQAIPDRRKAIEIARRANDVLAEECAKRPDRFLAFAALPLQDPDAATEELQRCVNDLGFVGALVNGFSQEGDGQTPLYYDLPQYRPFWGEVEKLDVPFYLHPRNPLPQDSRIYDGHPWLLGPTWAFAQETAVHALRLMASGLFDEHPRLNIILGHMGEGLPYMMWRIDHRNAWVKLPPRYPAKRRFMDYFNENFHITTSGNFRTQTLIDAILEIGADRILFSTDWPFENIDHASDWFNATSIAEADRVKIGRTNARRLFKLDGA"}, "B2": {"name": "109 (protein)", "chain": "B1 chain with N235V", "modifications": "Dicamba decarboxylase variant clone DC.4.032"}, "B3": {"name": "N61A: point mutation N61A of SEQ ID NO:109 (protein)", "chain": "B1 chain with N61A, N235V", "modifications": "Dicamba decarboxylase variant clone DC.4.032"}}, "key": {"[1]": {"experiment": "14C assay with purified protein (14CO2 captured on Ca(OH)2 filter paper)", "type": "biochemical", "details": "[14C]-carboxyl-labeled dicamba"}, "[2]": {"experiment": "Detection of 2,5-DCA product by toluene capture or head-space GC/MS", "type": "biochemical", "details": "purified protein, toluene capturing", "experimental": "Alternatively, dicamba decarboxylase activity can be monitored by measuring decarboxylation products other than CO2 using product detection methods. The decarboxylation product of dicamba, 2,5-dichloro anisole or 2,5-DCA (FIG. 1C), is a volatile compound with a flash point of 21° C. To capture this volatile compound for detection, 140 ul of toluene solution is added on top of 1 ml reaction mixture to form a trapping layer in a 1.5 ml eppendorf tube. […] The reaction is kept still at room temperature overnight before being vortex mixed and centrifuged at 14,000 rpm for 15 minutes. The top toluene phase is carefully removed using a micropipette and transferred into a 12×32 mm polypropylene vial (Vial 11 mm) from MicroLiter Analytical Supplies, Inc. (catalog number 11-5300-100). The vial is sealed with Crimp seal (11 mm with FEP/Nat Rubber) from MicroLiter Analytical Supplies, Inc. (catalog number 11-0020A) using a E-Z Crimper™ 11 mm from Wheaton Inc. 1 ul of the toluene mixture is taken from the sealed vials and injected in splitless mode into a GC/MS system for sample analysis (Agilent GC/MS system with a 6890A GC, a 5973N MSD and a CTC CombiPAL auto-sampler or with a 7890A GC, a 5975C MSD and an Agilent GC Sampler 80 auto-sampler). The GC parameters are: Agilent DB-5MS column (30 m length, 0.25 mm diameter, 0.25 um film) or equivalent; The GC inlet temperature, 250° C.; Carry gas, helium in constant flow mode (1.2 mL/min); The GC oven temperature program, initial temperature at 70° C. for 1 min, ramping to 200° C. at 15° C./min, and then ramping to 250° C. at 30° C./min. MS data acquisition is done in SIM (selected ion monitoring) mode, monitoring the positive ion at M/Z 176 for the molecular ion of […]. The solvent delay for MS acquisition is set at 4 min. Another method for detection of 2,5-DCA is a head-space GC/MS method. Briefly, reaction mixtures in 500 ul reaction volume are prepared in 1.5 ml×32 mm glass vials (Microliter Analytical Supplies, Cat#11-1200) for head space analysis. Glass vials are sealed with magnetic cap from MicroLiter Analytical Supplies, Inc. (catalog number 11-0030AT) using a E-Z Crimper™ 11 mm from Wheaton Industries Inc. The reaction is carried out at room temperature for various amount of time and stopped by heating at 95° C. for 5 min. The reaction vial is transferred to a agitator for incubation at 80° C. for 5 min at 500 rpm. With a syringe preheated at 80° C., 1000 uL of head space is injected with sample fill speed at 100 uL/sec. GC/MS parameters for headspace analysis are the same as for liquid sample analysis."}, "[3]": {"experiment": "Detection of 4-chloro-3-methoxy phenol product by LC-MS/MS", "type": "biochemical", "details": "purified protein"}, "[4]": {"experiment": "Detection of 2,5-DCP product by GC/MS", "type": "biochemical", "details": "purified protein"}, "[5]": {"experiment": "Dicamba decarboxylation activity of computationally designed protein variants"}, "[6]": {"experiment": "14C assay with IPTG-induced recombinant E. coli cells (14CO2 capture from [14C]-carboxyl-labeled dicamba)"}, "[7]": {"experiment": "Enzyme kinetic characterization (kcat, KM, kcat/KM) by PEPC/MDH coupled enzyme assay or GC/MS measurement of 2,5-DCP"}, "[8]": {"experiment": "Saturation mutagenesis of SEQ ID NO:109, dicamba decarboxylation activity of point mutants"}, "[9]": {"details": "purified protein, substrate dicamba"}}, "note": "Residue numbers refer to the chain shown, from its start. Numbers in names are those of the source.", "data": [{"molecule": "B1", "values": [{"measurement": "CO2 product", "setting": "[1]", "result": "detected"}, {"measurement": "2,5-DCA product", "setting": "[2]", "result": "detected"}, {"measurement": "4-chloro-3-methoxy phenol product", "setting": "[3]", "result": "detected"}, {"measurement": "2,5-DCP product", "setting": "[4]", "result": "detected"}, {"measurement": "Dicamba Decarboxylase Activity", "setting": "[5]; native protein or designed variant versus parent", "result": "native dicamba decarboxylase activity"}, {"measurement": "decarboxylation activity of dicamba", "setting": "[6]; E. coli cell assay, 108 sequences tested", "result": "showed decarboxylation activity of dicamba"}]}, {"molecule": "B2", "values": [{"measurement": "Dicamba Decarboxylation activity", "setting": "[5]; Table 5, designed variants with improved activity", "result": "Yes"}, {"measurement": "Percent Activity Improvement Over Parent (%)", "setting": "[5]; parent SEQ ID NO:1 or SEQ ID NO:41 listed as 100", "result": 234, "unit": "%"}, {"measurement": "Enzymatic Detection level", "setting": "[6]; dicamba decarboxylation activity of the protein of the given SEQ ID NO", "result": "High"}, {"measurement": "Km", "setting": "[7]; [9]", "result": 4.66, "unit": "mM"}, {"measurement": "kcat", "setting": "[7]; [9]", "result": 0.000533, "unit": "s⁻¹"}]}, {"molecule": "B3", "values": [{"measurement": "Average Activity (Fold of SEQ ID NO: 109)", "setting": "[8]; dicamba decarboxylation activity of point mutants of SEQ ID NO: 109 (NNK saturation mutagenesis), relative to the unchanged template", "result": "2.9 Fold of SEQ ID NO: 109"}, {"measurement": "Average Activity (Fold of SEQ ID NO: 109)", "setting": "[8]; dicamba decarboxylation activity of single point mutants of SEQ ID NO:109, relative to unchanged template", "result": "2.9 Fold of SEQ ID NO: 109"}, {"measurement": "KM compared with template SEQ ID NO:109", "setting": "[7]; FIG. 6", "result": "unchanged"}, {"measurement": "kcat compared with template SEQ ID NO:109", "setting": "[7]; FIG. 6", "result": 17, "unit": "fold"}]}]}
